In the supplement of paper PMC10126150:
± gives the standard deviation of the averaged measurements.

System: ATP
Assay: switch fluorescence ratio, 500 uM ATP over buffer (Cy3 cluster intensity, sum of 5 cycles each) (fold (ratio)); higher = stronger signal-on switching upon ATP binding; sequences stand for … in TCGTCGGCAGCGTCAGATGTGTATAAGAGACAGTTTTTTTTTTTTTTTTTTTTTTTTT…TC
Details: aptamer strand: ATP DNA aptamer (quencher-CACCTGGGGGAGTATTGCGGAGGAAGG + anchor), 100 nM annealed; ATP concentration: 500 uM
Summary of the method: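 Between each of five buffer/ATP cycles, the flow-cell was stripped with NaOH and re-annealed. Each cycle imaged Cy3-labelled switching-strand clusters, annealed to 100 nM quencher-labelled ATP aptamer on a modified Illumina MiSeq flow-cell, first in selection buffer and then after 15 min with 500 uM ATP at 22 °C. The fluorescence ratio is summed target-cycle over summed buffer-cycle Cy3 intensity per cluster, averaged per switch-domain sequence, with clusters outside 100-1000 RFU excluded.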
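Note: ATP exposure 15 min at 22 °C before imaging.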

Row | Sequence | switch fluorescence ratio
1 | TGGTTCTAG | 0.989 ± 0.024
2 | TGGTTCTTTT | 1.02 ± 0.056
3 | TGGTTGACGA | 1.01 ± 0.14
4 | TGGTTGCGGC | 0.986 ± 0.03
5 | TGGTTGGGAT | 1 ± 0.04
6 | TGGTTGGGGT | 1.01 ± 0.054
7 | TGGTTGGT | 0.9755 ± 0.0095
8 | TGGTTGTCCC | 1.01 ± 0.038
9 | TGGTTGTTCC | 1.03 ± 0.025
10 | TGGTTGTTTT | 0.99 ± 0.018
11 | TGGTTTAAGG | 0.9844 ± 0.0088
12 | TGGTTTAAGT | 0.987 ± 0.027
13 | TGGTTTAATT | 1.01 ± 0.017
14 | TGGTTTATAT | 1 ± 0.013
15 | TGGTTTCCCA | 0.9738 ± 0.0042
16 | TGGTTTGCGC | 1.36 ± 0.46
17 | TGGTTTGGGC | 0.984 ± 0.034
18 | TGGTTTGTAT | 1 ± 0.029
19 | TGGTTTGTGG | 0.974 ± 0.037
20 | TGGTTTTAGC | 0.9886 ± 0.0028
21 | TGGTTTTCGT | 1.01 ± 0.028
22 | TGGTTTTGTG | 0.9862 ± 0.0015
23 | TGGTTTTTGC | 0.961 ± 0.057
24 | TGGTTTTTTA | 0.993 ± 0.025
25 | TGTAAAAGGT | 1.04 ± 0.092

Row | Sequence | switch fluorescence ratio
26 | TGTAAAGGCG | 0.953 ± 0.039
27 | TGTAAAGGGA | 0.998 ± 0.024
28 | TGTAACCTTT | 1.04 ± 0.018
29 | TGTAAGCCTT | 1.03 ± 0.079
30 | TGTAAGCTGG | 1.03 ± 0.073
31 | TGTAAGGGAC | 1.07 ± 0.034
32 | TGTAAGGGGT | 1.06 ± 0.085
33 | TGTAAGTCTT | 0.966 ± 0.032
34 | TGTAAGTGCG | 0.9833 ± 0.0063
35 | TGTAATGCCC | 0.991 ± 0.02
36 | TGTACGTAG | 1.01 ± 0.012
37 | TGTACTAGGA | 0.968 ± 0.018
38 | TGTACTGGGG | 1.003 ± 0.0094
39 | TGTAGCAGCG | 1.1 ± 0.16
40 | TGTAGCATCT | 1.081 ± 0.0096
41 | TGTAGGGGTA | 0.98 ± 0.045
42 | TGTAGGGGTT | 1 ± 0.044
43 | TGTAGTACCG | 1.021 ± 0.0056
44 | TGTAGTACTT | 1.02 ± 0.016
45 | TGTAGTTGGT | 1.014 ± 0.0096
46 | TGTAGTTTGA | 1 ± 0.012
47 | TGTATACTTT | 1.018 ± 0.0081
48 | TGTATAGGGT | 1.01 ± 0.048
49 | TGTATATGG | 0.958 ± 0.016
50 | TGTATTGGTT | 0.99 ± 0.034

Row | Sequence | switch fluorescence ratio
51 | TGTATTTTGT | 0.976 ± 0.022
52 | TGTCAAAGAT | 0.9772 ± 0.0044
53 | TGTCACAGTT | 1.01 ± 0.013
54 | TGTCAGGGCA | 1.02 ± 0.064
55 | TGTCAGTGCG | 0.97 ± 0.042
56 | TGTCATAATG | 0.97 ± 0.015
57 | TGTCGAAAGA | 0.999 ± 0.013
58 | TGTCGACTGT | 0.987 ± 0.042
59 | TGTCGGAGGT | 1.02 ± 0.05
60 | TGTCGGGGAG | 1.01 ± 0.018
61 | TGTCGGGGGG | 1.01 ± 0.028
62 | TGTCGGTCGG | 0.984 ± 0.015
63 | TGTCGTCTGT | 0.9932 ± 0.0063
64 | TGTCTATAGT | 0.986 ± 0.036
65 | TGTCTATCGG | 0.974 ± 0.014
66 | TGTCTCGCCC | 1.02 ± 0.024
67 | TGTCTCTGTC | 1.01 ± 0.021
68 | TGTCTGAGGG | 1 ± 0.013
69 | TGTCTGCAGC | 1.022 ± 0.0085
70 | TGTCTGCTTT | 0.997 ± 0.043
71 | TGTCTTTTTT | 1.01 ± 0.029
72 | TGTGAAAAAG | 0.976 ± 0.053
73 | TGTGAACTTT | 1.01 ± 0.012
74 | TGTGAAGGGC | 1.02 ± 0.029
75 | TGTGAATGGT | 0.985 ± 0.015

Row | Sequence | switch fluorescence ratio
76 | TGTGAGGCTT | 1.03 ± 0.015
77 | TGTGAGGGCG | 1.06 ± 0.015
78 | TGTGATAGGG | 0.978 ± 0.06
79 | TGTGATAGGT | 1 ± 0.028
80 | TGTGATGGAG | 0.979 ± 0.033
81 | TGTGATGGGT | 0.996 ± 0.04
82 | TGTGATTTCG | 0.945 ± 0.048
83 | TGTGCGGGGT | 0.974 ± 0.012
84 | TGTGCTAAGT | 0.985 ± 0.026
85 | TGTGCTTTGT | 1 ± 0.016
86 | TGTGGCAACG | 0.974 ± 0.032
87 | TGTGGCCAGG | 1.04 ± 0.056
88 | TGTGGCGACG | 0.957 ± 0.012
89 | TGTGGCTAGG | 1.02 ± 0.029
90 | TGTGGCTTAA | 0.9668 ± 0.0021
91 | TGTGGGAGCT | 1.04 ± 0.07
92 | TGTGGGAGGT | 0.9573 ± 0.0065
93 | TGTGGGATTG | 0.993 ± 0.015
94 | TGTGGGCTGT | 1.02 ± 0.015
95 | TGTGGGGAAG | 0.989 ± 0.016
96 | TGTGGGGAAT | 1.04 ± 0.075
97 | TGTGGGGATG | 1.01 ± 0.02
98 | TGTGGGGCAT | 1.15 ± 0.27
99 | TGTGGGGCC | 1.04 ± 0.03
100 | TGTGGGGGGC | 1 ± 0.038
